Measurements taken from US11339383B2, “G proteins” (HEPTARES THERAPEUTICS LIMITED, priority 2016, dated 2022).

Test: Thermostability of GDP-bound mini G proteins by differential scanning fluorimetry (DSF)
Assay type: physicochemical
Settings: 1 mM GDP, SYPRO-orange, no receptor
Method: SYPRO-orange (15 μl) was added from a 20× stock solution to give a final concentration of 2×. Samples were mixed and 2×50 μl aliquots (duplicates) were transferred to 0.2 ml PCR tubes (Qiagen). Thermostability measurements were performed using a Rotor-Gene Q (Qiagen). Samples were equilibrated for 90 s at 25° C. before ramping from 25 to 99° C. at 4 s/° C. The melting temperature (Tm), corresponding to the inflection point of the curve, was derived from analysis using the Rotor-Gene Q software. Tm values were calculated as the mean±SEM from three independent experiments.
For constructs see FIGS. 29 and 35-37. Expression, purification and stability measurements by differential scanning fluorimetry (DSF) of the mini-G proteins as well as the non-lipidated Gβ1γ2 dimer, were performed following the protocols described in Example 1. The stability of mini-G proteins was also determined in detergent using native DSF (NanoTemper Prometheus). Mini-G proteins (2 mg/ml) in 50 mM HEPES pH 7.5 (KOH), 20 mM MgCl2, 50 mM NaCl, 1 μM GDP were mixed with either no detergent (control), 0.1% LMNG or 0.1% DDM. Samples were incubated on ice (minimum 30 min) prior to heating on the Prometheus (20% excitation, 15° C.-85° C., rate of 2.0° C./min) and the onset of scattering determined.

Molecule	Mini Gs basal Tm (GDP-bound state, DSF)
Mini Gs162: mini Gs161 with A249D (protein, MINI GS162, mini Gs161 with A249D) MGHHHHHHANKKIEKQLQKDKQVYRATHRLLLLGAGESGKSTIVKQMRILHGGGGGETKFQVDKVNFHMFDVGGQRDERRKWIQCFNDVTAIIFVVDSSSYNMVIREDNQTNRLQEALNLFKSIWNNRWLRTISVILFLNKQDLLAEKVLAGKSKIEDYFPEFARYTTPEDATPEPGEDPRVTRAKYFIRDEFLRISTASGDGRHYCYPHFTCAVDTENIRRVFNDCRDIIQRMHLRQYELL	60.6 ± 0.1 (n = 3) ° C.
Gαs: purified non-lipidated Gαs subunit (protein, UniProt P63092 2-394, looked up, non-lipidated, purified non-lipidated Gαs subunit) Guanine nucleotide-binding …: GCLGNSKTEDQRNEEKAQREANKKIEKQLQKDKQVYRATHRLLLLGAGESGKSTIVKQMRILHVNGFNGEGGEEDPQAARSNSDGEKATKVQDIKNNLKEAIETIVAAMSNLVPPVELANPENQFRVDYILSVMNVPDFDFPPEFYEHAKALWEDEGVRACYERSNEYQLIDCAQYFLDKIDVIKQADYVPSDQDLLRCRVLTSGIFETKFQVDKVNFHMFDVGGQRDERRKWIQCFNDVTAIIFVVASSSYNMVIREDNQTNRLQEALNLFKSIWNNRWLRTISVILFLNKQDLLAEKVLAGKSKIEDYFPEFARYTTPEDATPEPGEDPRVTRAKYFIRDEFLRISTASGDGRHYCYPHFTCAVDTENIRRVFNDCRDIIQRMHLRQYELL	50.1 ± 0.1 (n = 3) ° C.
Mini Gs199: mini Gs, Gly8 linker, switch III deleted, G49D E50N A249D S252D L272D (protein, MINI GS199, mini Gs, Gly8 linker, switch III deleted, G49D E50N A249D S252D L272D) MGHHHHHHANKKIEKQLQKDKQVYRATHRLLLLGADNSGKSTIVKQMRILHGGGGGGGGTSGIFETKFQVDKVNFHMFDVGGQRDERRKWIQCFNDVTAIIFVVDSSDYNRLQEALNDFKSIWNNRWLRTISVILFLNKQDLLAEKVLAGKSKIEDYFPEFARYTTPEDATPEPGEDPRVTRAKYFIRDEFLRISTASGDGRHYCYPHFTCAVDTENIRRVFNDCRDIIQRMHLRQYELL	72.5 ± 0.0 (n = 3) ° C.
Mini Gs350: mini Gs199 with L63Y (protein, MINI GS350, mini Gs199 with L63Y) MGHHHHHHANKKIEKQLQKDKQVYRATHRLLLLGADNSGKSTIVKQMRIYHGGGGGGGGTSGIFETKFQVDKVNFHMFDVGGQRDERRKWIQCFNDVTAIIFVVDSSDYNRLQEALNDFKSIWNNRWLRTISVILFLNKQDLLAEKVLAGKSKIEDYFPEFARYTTPEDATPEPGEDPRVTRAKYFIRDEFLRISTASGDGRHYCYPHFTCAVDTENIRRVFNDCRDIIQRMHLRQYELL	70.7 ± 0.0 (n = 3) ° C.
Mini Gs340: mini Gs199 with I372A (protein, MINI GS340, mini Gs199 with I372A) MGHHHHHHANKKIEKQLQKDKQVYRATHRLLLLGADNSGKSTIVKQMRILHGGGGGGGGTSGIFETKFQVDKVNFHMFDVGGQRDERRKWIQCFNDVTAIIFVVDSSDYNRLQEALNDFKSIWNNRWLRTISVILFLNKQDLLAEKVLAGKSKIEDYFPEFARYTTPEDATPEPGEDPRVTRAKYFIRDEFLRISTASGDGRHYCYPHFTCAVDTENARRVFNDCRDIIQRMHLRQYELL	66.6 ± 0.1 (n = 3) ° C.
Mini Gs254: mini Gs199 with M60A (protein, MINI GS254, mini Gs199 with M60A) MGHHHHHHANKKIEKQLQKDKQVYRATHRLLLLGADNSGKSTIVKQARILHGGGGGGGGTSGIFETKFQVDKVNFHMFDVGGQRDERRKWIQCFNDVTAIIFVVDSSDYNRLQEALNDFKSIWNNRWLRTISVILFLNKQDLLAEKVLAGKSKIEDYFPEFARYTTPEDATPEPGEDPRVTRAKYFIRDEFLRISTASGDGRHYCYPHFTCAVDTENIRRVFNDCRDIIQRMHLRQYELL	70.3 ± 0.0 (n = 3) ° C.
Mini Gs352: mini Gs199 with L63Y-I372A (protein, MINI GS352, mini Gs199 with L63Y-I372A) MGHHHHHHANKKIEKQLQKDKQVYRATHRLLLLGADNSGKSTIVKQMRIYHGGGGGGGGTSGIFETKFQVDKVNFHMFDVGGQRDERRKWIQCFNDVTAIIFVVDSSDYNRLQEALNDFKSIWNNRWLRTISVILFLNKQDLLAEKVLAGKSKIEDYFPEFARYTTPEDATPEPGEDPRVTRAKYFIRDEFLRISTASGDGRHYCYPHFTCAVDTENARRVFNDCRDIIQRMHLRQYELL	64.7 ± 0.1 (n = 3) ° C.
Mini GS303: mini Gs199 with V375I (protein, MINI GS303, mini Gs199 with V375I) MGHHHHHHANKKIEKQLQKDKQVYRATHRLLLLGADNSGKSTIVKQMRILHGGGGGGGGTSGIFETKFQVDKVNFHMFDVGGQRDERRKWIQCFNDVTAIIFVVDSSDYNRLQEALNDFKSIWNNRWLRTISVILFLNKQDLLAEKVLAGKSKIEDYFPEFARYTTPEDATPEPGEDPRVTRAKYFIRDEFLRISTASGDGRHYCYPHFTCAVDTENIRRIFNDCRDIIQRMHLRQYELL	70.3 ± 0.0 (n = 3) ° C.
Mini Gs345: mini Gs199 with I372A-V375I; detergent stabilised construct (protein, MINI GS345, mini Gs199 with I372A-V375I; detergent stabilised construct) MGHHHHHHANKKIEKQLQKDKQVYRATHRLLLLGADNSGKSTIVKQMRILHGGGGGGGGTSGIFETKFQVDKVNFHMFDVGGQRDERRKWIQCFNDVTAIIFVVDSSDYNRLQEALNDFKSIWNNRWLRTISVILFLNKQDLLAEKVLAGKSKIEDYFPEFARYTTPEDATPEPGEDPRVTRAKYFIRDEFLRISTASGDGRHYCYPHFTCAVDTENARRIFNDCRDIIQRMHLRQYELL	65.4 ± 0.1 (n = 3) ° C.
Mini Gs164: A249D and switch III deletion (protein, MINI GS164, A249D and switch III deletion) MGHHHHHHANKKIEKQLQKDKQVYRATHRLLLLGAGESGKSTIVKQMRILHGGGGGETKFQVDKVNFHMFDVGGQRDERRKWIQCFNDVTAIIFVVDSSSYNRLQEALNLFKSIWNNRWLRTISVILFLNKQDLLAEKVLAGKSKIEDYFPEFARYTTPEDATPEPGEDPRVTRAKYFIRDEFLRISTASGDGRHYCYPHFTCAVDTENIRRVFNDCRDIIQRMHLRQYELL	66.5 ± 0.0 (n = 3) ° C.
Mini Gs183: G49D-E50N-A249D-S252D-SIII-L272D (protein, MINI GS183, G49D-E50N-A249D-S252D-SIII-L272D) MGHHHHHHANKKIEKQLQKDKQVYRATHRLLLLGADNSGKSTIVKQMRILHGGGGGETKFQVDKVNFHMFDVGGQRDERRKWIQCFNDVTAIIFVVDSSDYNRLQEALNDFKSIWNNRWLRTISVILFLNKQDLLAEKVLAGKSKIEDYFPEFARYTTPEDATPEPGEDPRVTRAKYFIRDEFLRISTASGDGRHYCYPHFTCAVDTENIRRVFNDCRDIIQRMHLRQYELL	72.5 ± 0.0 (n = 3) ° C.
Mini Gs165: A249D-S252D-SIII (protein, MINI GS165, A249D-S252D-SIII) MGHHHHHHANKKIEKQLQKDKQVYRATHRLLLLGAGESGKSTIVKQMRILHGGGGGETKFQVDKVNFHMFDVGGQRDERRKWIQCFNDVTAIIFVVDSSDYNRLQEALNLFKSIWNNRWLRTISVILFLNKQDLLAEKVLAGKSKIEDYFPEFARYTTPEDATPEPGEDPRVTRAKYFIRDEFLRISTASGDGRHYCYPHFTCAVDTENIRRVFNDCRDIIQRMHLRQYELL	68.7 ± 0.0 (n = 3) ° C.
Mini Gs169: A249D-S252D-SIII- (mutation list truncated in table) (protein, MINI GS169) MGHHHHHHANKKIEKQLQKDKQVYRATHRLLLLGAGESGKSTIVKQMRILHGGGGGETKFQVDKVNFHMFDVGGQRDERRKWIQCFNDVTAIIFVVDSSDYNRLQEALNDFKSIWNNRWLRTISVILFLNKQDLLAEKVLAGKSKIEDYFPEFARYTTPEDATPEPGEDPRVTRAKYFIRDEFLRISTASGDGRHYCYPHFTCAVDTENIRRVFNDCRDIIQRMHLRQYELL	67.1 ± 0.0 (n = 3) ° C.

Same assay, conditions: DSF

Molecule	less stable than mini-Gs by
Mini-Gi146: mini-Gi1 construct 46: N-terminus re-inserted, D249 back to Leu, G217D; SEQ ID NO:110 (protein, Mini-Gi146) MGHHHHHHENLYFQGTLSAEDKAAVERSKMIDRNLREDGEKAAREVKLLLLGADNSGKSTIVKQMKIIHGGGGGGGGTTGIVETHFTFKDLHFKMFDVGGQRSERKKWIHCFEDVAAIIFCVDLSDYNRMHESMKLFDSICNNKWFTDTSIILFLNKKDLFEEKIKKSPLTICYQEYAGSNTYEEAAAYIQCQFEDLNKRKDTKEIYTHFTCATDTKNAQFIFDAVTDVIIKNNLKDCGLF	17 °C

Same assay, conditions: mini-G protein alone, GDP-bound

Molecule	Stability measured by DSF
Mini Gs399: mini Gs393 with N-terminal residues 6-25 replaced and L272D reversed; binds Gβγ (protein, MINI GS399) MGHHHHHHENLYFQGNSKTEDQRNEEKAQREANKKIEKQLQKDKQVYRATHRLLLLGADNSGKSTIVKQMRILHGGSGGSGGTSGIFETKFQVDKVNFHMFDVGGQRDERRKWIQCFNDVTAIIFVVDSSDYNRLQEALNLFKSIWNNRWLRTISVILFLNKQDLLAEKVLAGKSKIEDYFPEFARYTTPEDATPEPGEDPRVTRAKYFIRDEFLRISTASGDGRHYCYPHFTCAVDTENARRIFNDCRDIIQRMHLRQYELL	71.6 ± 0.0 °C
Mini-Gi146: mini-Gi1 construct 46: N-terminus re-inserted, D249 back to Leu, G217D; SEQ ID NO:110 (protein, Mini-Gi146) MGHHHHHHENLYFQGTLSAEDKAAVERSKMIDRNLREDGEKAAREVKLLLLGADNSGKSTIVKQMKIIHGGGGGGGGTTGIVETHFTFKDLHFKMFDVGGQRSERKKWIHCFEDVAAIIFCVDLSDYNRMHESMKLFDSICNNKWFTDTSIILFLNKKDLFEEKIKKSPLTICYQEYAGSNTYEEAAAYIQCQFEDLNKRKDTKEIYTHFTCATDTKNAQFIFDAVTDVIIKNNLKDCGLF	48 °C

Same assay, conditions: mini-G protein alone, GDP-bound; listed as Gs/i1 46

Molecule	Stability measured by DSF
Mini-Gi146: mini-Gi1 construct 46: N-terminus re-inserted, D249 back to Leu, G217D; SEQ ID NO:110 (protein, Mini-Gi146) MGHHHHHHENLYFQGTLSAEDKAAVERSKMIDRNLREDGEKAAREVKLLLLGADNSGKSTIVKQMKIIHGGGGGGGGTTGIVETHFTFKDLHFKMFDVGGQRSERKKWIHCFEDVAAIIFCVDLSDYNRMHESMKLFDSICNNKWFTDTSIILFLNKKDLFEEKIKKSPLTICYQEYAGSNTYEEAAAYIQCQFEDLNKRKDTKEIYTHFTCATDTKNAQFIFDAVTDVIIKNNLKDCGLF	47.8 ± 0.3 °C
